# Results: article PMC4562997, “Study of light-induced MscL gating by EPR spectroscopy” (European Biophysics Journal, 2015)
# T1: G22C MscL, StrepII-tagged, labelled with the light switch at cysteine 22 (E. coli, UniProt P0A742 1-136, G22C, cysteine 22 alkylated with the light switch (iodoacetate bearing the photocleavable protecting group 6-nitroveratryl alcohol))
# T1 construct: MscL, mechanosensitive channel of large conductance, E. coli; also called light switch-labeled-StrepII-tagged MscL; not shown: StrepII, C-terminal, kept
# T1 sequence (looked up): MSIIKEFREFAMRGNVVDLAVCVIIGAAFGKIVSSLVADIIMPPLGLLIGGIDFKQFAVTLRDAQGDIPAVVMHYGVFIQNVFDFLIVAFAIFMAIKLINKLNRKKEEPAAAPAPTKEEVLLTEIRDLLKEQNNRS
# Tests used:
# [1] = biological target: the molecule itself; experiment: chromatofocussing; protein purified in LDAO, detergent exchanged to Triton X-100 by size-exclusion chromatography, then chromatofocussing; pI compared with that of the pentamer
# [2] = biological target: the molecule itself; experiment: cell-based or functional assay
# [3] = biological target: the molecule itself; experiment: CW-EPR, intersubunit spin-spin interaction (spectral broadening); heteropentamers with 1, 2 or 3 light switches reconstituted in asolectin liposomes, room temperature, X-band; maximally (10:1) against minimally (1:10) spin-labelled channels
# [4] = biological target: T1, G22C MscL, StrepII-tagged, labelled …; experiment: sequential affinity chromatography (Ni-NTA, then Streptactin) + chromatofocussing; 6His-tagged and StrepII-tagged proteins purified in LDAO, mixed 1:1 (v/v), 45 min at room temperature, detergent exchanged to Triton X-100 by size exclusion; homopentamers removed on the two columns, heteropentamers separated on Mono P by pI; details: both partners purified
# [5] = biological target: the molecule itself; experiment: native gel or EMSA; blue native gel (8-16 % gradient); pure G22C MscL incubated 1 h at room temperature with urea, guanidinium hydrochloride or trifluoroethanol (various detergents also screened)
Binder,stoichiometry N [1],"calcein dequenching assay of MscL reconstituted into liposomes, percent release; after exchange of LDAO to Triton X-100 (same protein:lipid ratio) [2]",binding result [3],binding result [4],stoichiometry N [5]
"G22C-Strep MscL, unlabelled, after detergent exchange from LDAO to Triton X-100 (natural protein, E. coli, UniProt P0A742 1-136, looked up, MscL, mechanosensitive channel of large conductance, E. coli) MSIIKEFREFAMRGNVVDLAVCVIIGAAFGKIVSSLVADIIMPPLGLLIGGIDFKQFAVTLRDAQGDIPAVVMHYGVFIQNVFDFLIVAFAIFMAIKLINKLNRKKEEPAAAPAPTKEEVLLTEIRDLLKEQNNRS",5,85%,–,–,–
"G22C MscL, 6His-tagged, labelled with the EPR spin label at cysteine 22 (natural protein, E. coli, UniProt P0A742 1-136, looked up, cysteine 22 labelled with (1-oxyl-2,2,5,5-tetramethylpyrrolin-3-methyl) methanethiosulfonate spin label (maximally, 10:1, or minimally, 1:10 label:protein), MscL, mechanosensitive channel of large conductance, E. coli; also called EPR spin-labeled- His-tagged MscL; source: E. coli PB104 (mscL-null), p1BAD vector, purified in LDAO (Ni-NTA), spin-labelled in detergent solution; not shown: 6His, C-terminal, kept) MSIIKEFREFAMRGNVVDLAVCVIIGAAFGKIVSSLVADIIMPPLGLLIGGIDFKQFAVTLRDAQGDIPAVVMHYGVFIQNVFDFLIVAFAIFMAIKLINKLNRKKEEPAAAPAPTKEEVLLTEIRDLLKEQNNRS",–,–,binds,binds,–
"G22C MscL (mechanosensitive channel of large conductance, E. coli), pure, unlabelled, as run on the blue native gel (natural protein, UniProt P0A742 1-136, looked up, MscL, mechanosensitive channel of large conductance, E. coli; The denaturant treatment stands in the methods right after the isolation of the 6His-tagged protein, so the 6His form is likely; source: E. coli PB104 (mscL-null), p1BAD vector, purified from membrane vesicles) MSIIKEFREFAMRGNVVDLAVCVIIGAAFGKIVSSLVADIIMPPLGLLIGGIDFKQFAVTLRDAQGDIPAVVMHYGVFIQNVFDFLIVAFAIFMAIKLINKLNRKKEEPAAAPAPTKEEVLLTEIRDLLKEQNNRS",–,–,–,–,5
"I24C MscL labelled with the EPR spin label at cysteine 24 (natural protein, E. coli, UniProt P0A742 1-136, looked up, cysteine 24 labelled with (1-oxyl-2,2,5,5-tetramethylpyrrolin-3-methyl) methanethiosulfonate spin label, MscL, mechanosensitive channel of large conductance, E. coli; source: E. coli PB104 (mscL-null), p1BAD vector, purified, spin-labelled) MSIIKEFREFAMRGNVVDLAVGVCIGAAFGKIVSSLVADIIMPPLGLLIGGIDFKQFAVTLRDAQGDIPAVVMHYGVFIQNVFDFLIVAFAIFMAIKLINKLNRKKEEPAAAPAPTKEEVLLTEIRDLLKEQNNRS",–,–,binds,binds,–
"A28C MscL labelled with the EPR spin label at cysteine 28 (natural protein, E. coli, UniProt P0A742 1-136, looked up, cysteine 28 labelled with (1-oxyl-2,2,5,5-tetramethylpyrrolin-3-methyl) methanethiosulfonate spin label, MscL, mechanosensitive channel of large conductance, E. coli; source: E. coli PB104 (mscL-null), p1BAD vector, purified, spin-labelled) MSIIKEFREFAMRGNVVDLAVGVIIGACFGKIVSSLVADIIMPPLGLLIGGIDFKQFAVTLRDAQGDIPAVVMHYGVFIQNVFDFLIVAFAIFMAIKLINKLNRKKEEPAAAPAPTKEEVLLTEIRDLLKEQNNRS",–,–,binds,binds,–
